# IntAct's records for PubMed 25281266
# B1: Peregrin (Homo sapiens), P55201 (parent)
# chain: MGVDFDVKTFCHNLRATKPPYECPVETCRKVYKSYSGIEYHLYHYDHDNPPPPQQTPLRKHKKKGRQSRPANKQSPSPSEVSQSPGREVMSYAQAQRMVEVDLHGRVHRISIFDNLDVVSEDEEAPEEAPENGSNKENTETPAATPKSGKHKNKEKRKDSNHHHHHNVSASTTPKLPEVVYRELEQDTPDAPPRPTSYYRYIEKSAEELDEEVEYDMDEEDYIWLDIMNERRKTEGVSPIPQEIFEYLMDRLEKESYFESHNKGDPNALVDEDAVCCICNDGECQNSNVILFCDMCNLAVHQECYGVPYIPEGQWLCRRCLQSPSRAVDCALCPNKGGAFKQTDDGRWAHVVCALWIPEVCFANTVFLEPIDSIEHIPPARWKLTCYICKQRGSGACIQCHKANCYTAFHVTCAQQAGLYMKMEPVRETGANGTSFSVRKTAYCDIHTPPGSARRLPALSHSEGEEDEDEEEDEGKGWSSEKVKKAKAKSRIKMKKARKILAEKRAAAPVVSVPCIPPHRLSKITNRLTIQRKSQFMQRLHSYWTLKRQSRNGVPLLRRLQTHLQSQRNCDQVGRDSEDKNWALKEQLKSWQRLRHDLERARLLVELIRKREKLKRETIKVQQIAMEMQLTPFLILLRKTLEQLQEKDTGNIFSEPVPLSEVPDYLDHIKKPMDFFTMKQNLEAYRYLNFDDFEEDFNLIVSNCLKYNAKDTIFYRAAVRLREQGGAVLRQARRQAEKMGIDFETGMHIPHSLAGDEATHHTEDAAEEERLVLLENQKHLPVEEQLKLLLERLDEVNASKQSVGRSRRAKMIKKEMTALRRKLAHQRETGRDGPERHGPSSRGSLTPHPAACDKDGQTDSAAEESSSQETSKGLGPNMSSTPAHEVGRRTSVLFSKKNPKTAGPPKRPGRPPKNRESQMTPSHGGSPVGPPQLPIMSSLRQRKRGRSPRPSSSSDSDSDKSTEDPPMDLPANGFSGGNQPVKKSFLVYRNDCSLPRSSSDSESSSSSSSSAASDRTSTTPSKQGRGKPSFSRGTFPEDSSEDTSGTENEAYSVGTGRGVGHSMVRKSLGRGAGWLSEDEDSPLDALDLVWAKCRGYPSYPALIIDPKMPREGMFHHGVPIPVPPLEVLKLGEQMTQEAREHLYLVLFFDNKRTWQWLPRTKLVPLGVNQDLDKEKMLEGRKSNIRKSVQIAYHRALQHRSKVQGEQSSETSDSD
# Variants of: B1
# Conditions: with h2a1_human H2AC11, P0C0S8
row,Variant,effect of a mutation on the interaction
1,A709S,decreasing interaction

# Variants of: B1
# Conditions: with h4_human H4C16, P62805
row,Variant,effect of a mutation on the interaction
1,A709S,decreasing interaction

# Variants of: B1
# Conditions: with h2a1_human H2AC11, P0C0S8
# Remark: another data set of the same source
row,Variant,effect of a mutation on the interaction
1,I713A,decreasing interaction

# Variants of: B1
# Conditions: with h4_human H4C16, P62805
# Remark: another data set of the same source
row,Variant,effect of a mutation on the interaction
1,I713A,decreasing interaction

# Variants of: B1
# Conditions: with h2a1_human H2AC11, P0C0S8
# Remark: another data set of the same source
row,Variant,effect of a mutation on the interaction
1,E661A,decreasing interaction

# Variants of: B1
# Conditions: with h4_human H4C16, P62805
# Remark: another data set of the same source
row,Variant,effect of a mutation on the interaction
1,E661A,decreasing interaction

# Variants of: B1
# Conditions: with h2a1_human H2AC11, P0C0S8
# Remark: another data set of the same source
row,Variant,effect of a mutation on the interaction
1,N708A,disrupting interaction

# Variants of: B1
# Conditions: with h4_human H4C16, P62805
# Remark: another data set of the same source
row,Variant,effect of a mutation on the interaction
1,N708A,disrupting interaction

# Variants of: B1
# Conditions: with h2a1_human H2AC11, P0C0S8
# Remark: another data set of the same source
row,Variant,effect of a mutation on the interaction
1,C704A,decreasing interaction

# Variants of: B1
# Conditions: with h4_human H4C16, P62805
# Remark: another data set of the same source
row,Variant,effect of a mutation on the interaction
1,C704A,decreasing interaction

# Variants of: B1
# Conditions: with h2a1_human H2AC11, P0C0S8
# Remark: another data set of the same source
row,Variant,effect of a mutation on the interaction
1,F714A,disrupting interaction

# Variants of: B1
# Conditions: with h4_human H4C16, P62805
# Remark: another data set of the same source
row,Variant,effect of a mutation on the interaction
1,F714A,disrupting interaction
